# Measurements from paper PMC7060540.
# Target: HIS-CbuHMGA (Catalpa bungei)
# Assay: BLI; Octet QK (Forte-Bio); GST-CbuSPL9 at 2381, 1191, 595.3, 297.6 and 148.8 nM on HIS-CbuHMGA; which protein was immobilised, buffer and temperature not told
substance,measurement,value
GST-CbuSPL9 (natural protein),Kd,311 nM
